Test results taken from patent US12662541B2, “Antibody-drug conjugates against the receptor tyrosine kinase EphA5” (Rutgers, The State University of New Jersey, priority 2021, dated 2026).
Substitutions are numbered along the chain they refer to.

B1: VH2/VK2: humanized anti-EphA5 antibody, VH SEQ ID NO:3, VL SEQ ID NO:10 (antibody, V domains shown)
VH: EVTLVESGGGLVQPGGSLKLSCAASGFTFSTFGIHWVRQAPGKGLEWVAYISGASTTIYYADTVKGRFTISRDNSKNTLYLQMNSLRSEDTAMYYCARYGTSFPYGLDYWGQGTLVTVSS
VL: DIVMTQSPDSLAVSLGERATINCKASQSVDYDGDSYMNWYQQKPGKAPKLLIYGASNLESGIPDRFSGSGSGTDFTLTISRLEPEDAASYYCQQSNEDPFTFGQGTKLEIK
B2: VH6/VK4: humanized anti-EphA5 antibody, VH SEQ ID NO:7, VL SEQ ID NO:12 (antibody, V domains shown)
VH: B1 VH with T3Q, Y50S, T63S, S88A, M93V
VL: B1 VL with A25S
B3: VH3/VK2: humanized anti-EphA5 antibody, VH SEQ ID NO:4, VL SEQ ID NO:10 (antibody, V domains shown)
VH: B1 VH with T3Q
VL: B1 VL
B4: VH5/VK1: humanized anti-EphA5 antibody, VH SEQ ID NO:6, VL SEQ ID NO:9 (antibody, V domains shown)
VH: B1 VH with T3Q, T63S, S88A, M93V
VL: B1 VL with D9G, P84E
B5: VH1/VK2: humanized anti-EphA5 antibody, VH SEQ ID NO:2, VL SEQ ID NO:10 (antibody, V domains shown)
VH: B1 VH with L18R, L115S
VL: B1 VL
B6: VH4/VK1: humanized anti-EphA5 antibody, VH SEQ ID NO:5, VL SEQ ID NO:9 (antibody, V domains shown)
VH: B1 VH with T3Q, S88A, M93V
VL: B1 VL with D9G, P84E
B7: VH1/VK3: humanized anti-EphA5 antibody, VH SEQ ID NO:2, VL SEQ ID NO:11 (antibody, V domains shown)
VH: B1 VH with L18R, L115S
VL: B1 VL with S89V
B8: VH2/VK1: humanized anti-EphA5 antibody, VH SEQ ID NO:3, VL SEQ ID NO:9 (antibody, V domains shown)
VH: B1 VH
VL: B1 VL with D9G, P84E
B9: VH3/VK1: humanized anti-EphA5 antibody, VH SEQ ID NO:4, VL SEQ ID NO:9 (antibody, V domains shown)
VH: B1 VH with T3Q
VL: B1 VL with D9G, P84E
B10: VH4/VK5: humanized anti-EphA5 antibody, VH SEQ ID NO:5, VL SEQ ID NO:13 (antibody, V domains shown)
VH: B1 VH with T3Q, S88A, M93V
VL: B1 VL with A25S, S89V
B11: VH1/VK1: humanized anti-EphA5 antibody, VH SEQ ID NO:2, VL SEQ ID NO:9 (antibody, V domains shown)
VH: B1 VH with L18R, L115S
VL: B1 VL with D9G, P84E
B12: VH2/VK5: humanized anti-EphA5 antibody, VH SEQ ID NO:3, VL SEQ ID NO:13 (antibody, V domains shown)
VH: B1 VH
VL: B1 VL with A25S, S89V
B13: VH4/VK2: humanized anti-EphA5 antibody, VH SEQ ID NO:5, VL SEQ ID NO:10 (antibody, V domains shown)
VH: B1 VH with T3Q, S88A, M93V
VL: B1 VL
B14: VH5/VK5: humanized anti-EphA5 antibody, VH SEQ ID NO:6, VL SEQ ID NO:13 (antibody, V domains shown)
VH: B1 VH with T3Q, T63S, S88A, M93V
VL: B1 VL with A25S, S89V
B15: VH6/VK5: humanized anti-EphA5 antibody, VH SEQ ID NO:7, VL SEQ ID NO:13 (antibody, V domains shown)
VH: B1 VH with T3Q, Y50S, T63S, S88A, M93V
VL: B1 VL with A25S, S89V
B16: VH3/VK5: humanized anti-EphA5 antibody, VH SEQ ID NO:4, VL SEQ ID NO:13 (antibody, V domains shown)
VH: B1 VH with T3Q
VL: B1 VL with A25S, S89V
B17: VH3/VK3: humanized anti-EphA5 antibody, VH SEQ ID NO:4, VL SEQ ID NO:11 (antibody, V domains shown)
VH: B1 VH with T3Q
VL: B1 VL with S89V
B18: VH2/VK4: humanized anti-EphA5 antibody, VH SEQ ID NO:3, VL SEQ ID NO:12 (antibody, V domains shown)
VH: B1 VH
VL: B1 VL with A25S
B19: VH6/VK3: humanized anti-EphA5 antibody, VH SEQ ID NO:7, VL SEQ ID NO:11 (antibody, V domains shown)
VH: B1 VH with T3Q, Y50S, T63S, S88A, M93V
VL: B1 VL with S89V
B20: VH2/VK3: humanized anti-EphA5 antibody, VH SEQ ID NO:3, VL SEQ ID NO:11 (antibody, V domains shown)
VH: B1 VH
VL: B1 VL with S89V
B21: VH1/VK5: humanized anti-EphA5 antibody, VH SEQ ID NO:2, VL SEQ ID NO:13 (antibody, V domains shown)
VH: B1 VH with L18R, L115S
VL: B1 VL with A25S, S89V
B22: VH1/VK4: humanized anti-EphA5 antibody, VH SEQ ID NO:2, VL SEQ ID NO:12 (antibody, V domains shown)
VH: B1 VH with L18R, L115S
VL: B1 VL with A25S
B23: VH6/VK1: humanized anti-EphA5 antibody, VH SEQ ID NO:7, VL SEQ ID NO:9 (antibody, V domains shown)
VH: B1 VH with T3Q, Y50S, T63S, S88A, M93V
VL: B1 VL with D9G, P84E
B24: VH6/VK2: humanized anti-EphA5 antibody, VH SEQ ID NO:7, VL SEQ ID NO:10 (antibody, V domains shown)
VH: B1 VH with T3Q, Y50S, T63S, S88A, M93V
VL: B1 VL

target: T1, rhEphA5 antigen (Homo sapiens, UniProt P54756); assay: kd (1/s)
T1 construct: purchased R and D systems 3036-A5
Procedure: (§1) Table printed on a drawing sheet, FIG. 13
Head of the field: kd (1/s)
(§2) The patent's description of the figure: FIG. 13 is a table illustrating the single cycle kinetic parameters of chimeric (VH0/VK0) and humanized 11C12 variants (tested as cell culture supernatants) binding to rhEphA5 antigen as determined using the Biacore T200. The relative KD was calculated by dividing the KD of the humanized variant by that of the VH0/VK0 (top row) assayed in the same experiment. The variants marked with ‘*’ have KD values that are within two-fold of, or are better than, the chimeric antibody. The chimeric and selected variants marked in ‘#’ were identified as the main leads for purification. […]
(§3) Where the first naming reader finds the target: description_of_the_figure: humanized 11C12 variants (tested as cell culture supernatants) binding to rhEphA5 antigen as determined using the Biacore T200

kd [s⁻¹]	Molecule
0.00126	B1
0.209	B2
0.0013	B3
0.00127	B4
0.00126	B5
0.00129	B6
0.00125	B7
0.0012	B8
0.00123	B9
0.00137	B10
0.00128	B11
0.0014	B12
0.00114	B13
0.0014	B14
0.285	B15
0.00143	B16
0.00133	B17
0.00126	B18
0.341	B19
0.00132	B20
0.00139	B21
0.00137	B22

target: T1, rhEphA5 antigen; assay: ka (1/Ms)
Procedure: as §1
Head of the field: ka (1/Ms)
as §2, §3

ka [M⁻¹ s⁻¹]	Molecule
1.3e+06	B1
1.34e+06	B3
1.65e-09	B23
1.31e-06	B5
1.74e-09	B24
1.35e-06	B8
1.39e+06	B9
1.37e-06	B10
1.25e-06	B11
1.34e+06	B12
1.37e-06	B14
1.29e+06	B16
1.32e+06	B17
1.37e-06	B18
5.22e-09	B19

target: T1, rhEphA5 antigen; assay: KD (M)
Procedure: as §1
Head of the field: KD (M)
as §2, §3

Kd [nM]	Molecule
0.971	B1
0.968	B3
0.968	B5
0.948	B7
0.89	B8
0.884	B9
1.02	B11
1.05	B12
1.1	B16
1.01	B17
0.917	B18
0.985	B20
1.12	B21
1.1	B22
